From the nanobody polyreactivity screen of Harvey et al. (2022)

assay: yeast display, Sf9 membrane polyspecificity reagent, FACS + sequencing; frameworks hold sequencing errors
Outline: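 In a synthetic yeast display library (Saccharomyces cerevisiae BJ5465), nanobody expression was induced with galactose for 36–48 hours. FACS gates were set low and high (top ~1%) using anti-HA fluorescence for expression and streptavidin fluorescence for binding of the Sf9 membrane reagent. Each polyreactivity label is drawn from the gate of origin.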

Sequence | polyreactivity (PSR sort gate)
QVQLVESGGGLVQAGGSLRLSCAASGSTFDWYVMGWNRQAPGKETELVAAINQGSGSTYYADSVKGRFTISRDNAKNPVYLQMNSLKPEDTAVYYCAADRYGAGYLYWPYDYWGQGTQVTVSS | low polyreactivity
QVQLVESGGGLVQAGGSLRLSCAASGSTFDYNDMGWYRQAPGKERELVASITFSGGTYDADSVKGRFTISRDNAKTTVYLQMNSLTPEDTAVYYCNAVYFFYIDPWNSYPTYDYWGQGTQVTVSS | high polyreactivity
QVQLVESGGGLVQAGGSLRLSCAASGSTFDYNTMGWYRQAPGKERELVAAINNSGGSTYYADSVKGRFTISRDNAKNTVYLQMNSLKPEDTAVYYCAAVSYRRHFGPYNYWGQGTQVTVSS | low polyreactivity
QVQLVESGGGLVQAGGSLRLSCAASGSTFDYYAMGWYRPAPGKERELVAAISRRGGGTYYADSVKGRFTISRDNAKNTVYLQMNSLKPEDTAVYYCAKAVKYPTKALAVGYWGQGTQVTVSS | high polyreactivity
QVQLVESGGGLVQAGGSLRLSCAASGSTFDYYAMGWYRQAPGKERELVAAISGSGDRTYYADSVKGGFTISRDNAKNTVYLQMNSLKREDTAVYYCAKYGRTRFYYWGQVTQVTVSS | high polyreactivity
QVQLVESGGGLVQAGGSLRLSCAASGSTFDYYAMGWYRQAPGKERELVAAITWSGGTTYYADSVKGRFTISRDNAKNTVYLQMNSLKPEDTAVYYCAAESTLPIIDRDDYWGQGTQVTVSS | low polyreactivity
QVQLVESGGGLVQAGGSLRLSCAASGSTFDYYAMGWYRQTPGNDRELVAALSWSGGSTYYADSVKGRFTISRDNAKNTVYLQMNSLKPEDTAVYYCATGTYCPRYNYFEGYYWGQGTQVTVSS | high polyreactivity
QVQLVESGGGLVQAGGSLRLSCAASGSTFDYYDMGWYRQAPGKERELVATITSGGSTNYADSVKGRFTISRDNAKNTVYLQMNSLKPEDTAVYDCAADIGGDGEGYDYWGQGTQVTVSS | low polyreactivity
QVQLVESGGGLVQAGGSLRLSCAASGSTFEANAMGWYRQAPGKERELVAVITRTGGSTYYADSVKGRFTISRDNAKNTVYLQMNSLKPVDTAVYYCAADGVVPGRFFWPAHEYDYWGQGTQVTVSS | low polyreactivity
QVQLVESGGGLVQAGGSLRLSCAASGSTFEAYAMGWDRQAPGKERELVAAISYSGSSTYYADSVKGRFTISRDNAMNSVYLQMHRLKPEDTALTYCAARASKGRRMGYWGQGTQVTVSS | low polyreactivity
QVQLVESGGGLVQAGGSLRLSCAASGSTFEAYAMGWYRQAPGKERELVATITGSGGRTYADSVKGRFTITRDNAKNTVYLQMNSLKPEDTAVYYCAADCLKVAEYDYWGQGTQVTVSS | low polyreactivity
QVQLVESGGGLVQAGGSLRLSCAASGSTFEGNDMGWYRQAPGKERELVAAITTGAGTNYADSVKGRFTISRDNAKNTVYLQMNSLKPEDTAVYYCATRVYWYYDPYYSKYTYDYWGQGTQVTVSS | low polyreactivity
QVQLVESGGGLVQAGGSLRLSCAASGSTFEGYAMGWYRQAPGKERELVAVISSGSITKYADSVKGRFTISRDNAKNTVYLQMNSLKQEDTAVYYCAADWTYVRFDYWGQGTQVTVSS | low polyreactivity
QVQLVESGGGLVQAGGSLRLSCAASGSTFEIYAMGWYRQAPGKERELVAAIDFSGGSTYYADSVKGRFTISRDNAKKTLYLQMNSLKPEDTAVYYCAVDSASDTIYDYWGQGTQVTVSS | low polyreactivity
QVQLVESGGGLVQAGGSLRLSCAASGSTFEIYAMGWYRQAPGKERELVATITWSGGSTYYADSVKGRFTISRDNAKNTVYLQMNSLKPEDTAVYYCAAESIYYPVAQYYYSFEYWGQGTQVTVSS | low polyreactivity
QVQLVESGGGLVQAGGSLRLSCAASGSTFEIYVMGWYRQAPGKERELVAAISRVGNTSYADSVKGRFTISRDNAKNTVYLQMNSLKPEDTAVYYCAADAPSWYDRQYDYWGQGTQVTVSS | low polyreactivity
QVQLVESGGGLVQAGGSLRLSCAASGSTFELYAMGWYRQAPGKERELVASITGDSTNYADSVKGRFTISRDNAKNTVYLQMNSLKPEDTAVYYCAKPYYDGRTHFDSWGQGTQVTVSS | low polyreactivity
